Measured values as given in patent US9585933B2, “Therapeutic use of peptide inhibitors of NADPH oxidase; aerosolization as a delivery mechanism” (University of Pittsburgh—Of the Commonwealth System of …, priority 2011, dated 2017).

Experiments:
[1] = molecular target: T1, Nox2 oxidase (COS-Nox2 lysate) (Homo sapiens, UniProt P14598); assay: EPR with spin probe CMH, O2- production in COS-Nox2 lysates; assay type: biochemical; conditions: 10 μM peptide, vehicle 36330±2658
T1 construct: host or cells: COS 7 cells, stably transfected; cell lysate used
T1 sequence (P14598 1-390): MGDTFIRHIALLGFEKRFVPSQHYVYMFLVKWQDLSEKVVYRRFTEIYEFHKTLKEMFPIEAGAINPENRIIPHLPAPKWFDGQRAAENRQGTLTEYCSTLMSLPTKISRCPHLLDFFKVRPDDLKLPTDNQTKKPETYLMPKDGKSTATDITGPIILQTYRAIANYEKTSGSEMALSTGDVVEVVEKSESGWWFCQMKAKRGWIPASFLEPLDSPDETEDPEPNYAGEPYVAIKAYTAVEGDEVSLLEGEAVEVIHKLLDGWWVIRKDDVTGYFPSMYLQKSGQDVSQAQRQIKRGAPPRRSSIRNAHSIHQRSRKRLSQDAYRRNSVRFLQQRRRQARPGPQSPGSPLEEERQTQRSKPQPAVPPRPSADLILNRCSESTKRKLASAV
Experimental: (§1) To test this hypothesis, the inhibitory activity of Nox2ds was assessed in cell-free assays using reconstituted systems expressing either Nox1, 2 or 4 oxidase. Nox 2 oxidase was recapitulated by stably transfecting COS 7 cells with Nox2, p22phox, p47phox, and p67phox (aka COS-Nox2). Nox1 oxidase was obtained by transfecting COS 7 cells with Nox1, p22phox, NOXO1 and NOXA1 (COS-Nox1), and Nox 4 oxidase was regenerated by transfection of COS 7 cells with Nox4 and p22phox. […] Our new data support selectivity of Nox2ds peptide in differentiating the contribution of Nox2 vs. Nox1 and Nox4 NADPH oxidase and its potential clinical use in ameliorating cardiopulmonary diseases.
The spin probe 1-hydroxy-3-methoxycarbonyl-2,2,5,5-tetramethylpyrrolidine hydrochloride (CMH; Alexis Corp., San Diego, Calif., USA) was used to examine O2^− production in COS-Nox2 cell lysates using a Bruker eScan table-top EPR spectrometer (Bruker Biospin, USA). Superoxide production was measured in oxidase assay buffer (65 mM sodium phosphate buffer, pH 7.0, 1 mM EGTA, 10 μM FAD, 1 mM MgCl2, 2 mM NaN3) supplemented with 50 μM CMH. […] Analyses of the EPR spectra peak heights were used to quantify the amount of O2^− produced by the lysates and were compared with buffer-only control spectra or spectra in the presence of 10 μM Nox2ds, 10 μM Scrmb Nox2ds, or 150 U/ml SOD. […]

[2] = molecular target: T2, Nox2 oxidase (COS-Nox2 lysate: Nox2, p22phox, p47phox, p67phox) (Homo sapiens, UniProt P14598); assay: Cell-free SOD-inhibitable cytochrome c reduction assay, O2- production in COS-Nox2 lysates; assay type: biochemical
T2 construct: host or cells: COS 7 cells, stably transfected; cell lysate used
T2 sequence (P14598 1-390): T1 sequence (P14598 1-390)
Experimental: as §1
COS-Nox2: COS 7 cells transfected with p22^phox, Nox2, p47^phox and p67^phox (M. Dinauer, Indiana University). (Price M O, McPhail L C, Lambeth J D, Han C H, Knaus U G, Dinauer M C. Blood. 2002 Apr. 15; 99(8):2653-61.)
Superoxide (O2^−) production was measured in COS-Nox1 and COS-Nox2 lysates by determining the rate of O2^− dismutase (SOD) inhibitable cytochrome c reduction and by electron paramagnetic resonance (EPR).
COS-Nox2, COS-Nox1/NOXO1/NOXA1, and COS-22 cells were suspended to a concentration of 5×10^7 cells/ml in ice-cold disruption buffer (8 mM potassium, sodium phosphate buffer, pH 7.0, 131 mM NaCl, 340 mM sucrose, 2 mM NaN3, 5 mM MgCl2, 1 mM EGTA, 1 mM EDTA, and protease inhibitor cocktail). The cells were lysed by five freeze/thaw cycles and passed through a 30-gauge needle five times to further lyse the cells. Cell disruption was confirmed by phase-contrast microscopy. The cell lysate was centrifuged at 1000 g for 10 min at 4° C. to remove unbroken cells, nuclei, and debris. Throughout all these procedures, extreme care was taken to maintain the lysate at a temperature close to 0° C. Superoxide production was calculated from the initial linear rate (over 10 min) of SOD-inhibitable cytochrome c reduction quantified at 550 nm using the extinction coefficient of 21.1 mM-1 cm-1 (Biotek Synergy 4 hybrid multimode microplate reader). The oxidase assay buffer consisted of 65 mM sodium phosphate buffer (pH 7.0), 1 mM EGTA, 10 μM FAD, 1 mM MgCl2, 2 mM NaN3, and 0.2 mM cytochrome c. The components of the cell-free system were added in the following order: oxidase assay buffer, cell lysate (5×10^5 cell equivalents/well), and Nox2ds/Scrmb Nox2ds peptides at a final concentration of 0.1, 0.3, 1.0, 3.0, and 10 μM. The plates were placed on an orbital shaker to mix contents for 5 min at 120 movements/min at room temperature. LIDS, an established lipid activator of phagocyte cell-free systems, was added at a concentration of 130 μM, and O2^− production was initiated by the addition of 180 μM NADPH. The concentration of Nox2ds peptide that caused 50% inhibition of O2^− production (IC50) in COS-Nox2 cell lysates was calculated by Prism 5 (GraphPad Software, La Jolla, Calif., USA).
Cytochrome C Assay. FIG. 3A. Rate of O2^− production in COS-Nox2 lysates pretreated with Nox2ds or scrambled control (Scrmb Nox2ds). O2^− production was initiated by the addition of NADPH and measured by the SOD-inhibitable cytochrome c reduction for 10 min.

CLRVTRQSR (Scrambled Nox2ds) [scrmb Nox2ds, reference compound]
CM radical intensity (EPR, O2- production) [1]: 34142±6075 | rate of O2- generation, SOD-inhibitable reduction of cytochrome c ([2]; 10 μM peptide, 0 μM control 1.33±0.1): 1.44±0.2 nmol O2^−/min/10^7 lysate-cell equivalents | inhibition of Nox2-oxidase O2- production (in words) ([2]; cytochrome c assay): did not inhibit
